Assay results reported in EP1615032A1 (Kido, Hiroshi, dated 2006).

Molecular target: T1, purified mouse VDAC protein (mouse, UniProt Q3U6K8 2-283)
T1 construct: Used as a 100 ng/ml solution over dot-blotted ligands; also called voltage-dependent anion channel
Assay: dot blot on nitrocellulose; bound VDAC detected with anti-VDAC antibody and ECL

binding result: no binding
B1: human microplasmin (enzyme, UniProt P00747 550-810, looked up)
chain: KLYDYCDVPQCAAPSFDCGKPQVEPKKCPGRVVGGCVAHPHSWPWQVSLRTRFGMHFCGGTLISPEWVLTAAHCLEKSPRPSSYKVILGAHQEVNLEPHVQEIEVSRLFLEPTRKDIALLKLSSPAVITDKVIPACLPSPNYVVADRTECFITGWGETQGTFGAGLLKEAQLPVIENKVCNRYEFLNGRVQSTELCAGHLAGGTDSCQGDSGGPLVCFEKDKYILQGVTSWGLGCARPNKPGVYVRVSRFVTWIEGVMRNN
notes: 50 ng dot blotted onto a nitrocellulose membrane; also called microplasmin having no Kringle domain
